Assay results reported in CN118307667A (INST PATHOGEN BIOLOGY CAMS, dated 2024).

How the values were obtained:
[1] = target: RSV-A2 F假病毒上的F蛋白 (参考序列Uniprot:P03420) (RSV A2, UniProt P03420 26-574); assay: cell-based or functional assay
RSV(strain A2)病毒的F蛋白 = RSV(strain A2)病毒的F蛋白 (RSV (strain A2), UniProt P03420 26-574); assay: cell-based or functional assay
RSV(strain A2)病毒的F蛋白, sequence (P03420 26-574): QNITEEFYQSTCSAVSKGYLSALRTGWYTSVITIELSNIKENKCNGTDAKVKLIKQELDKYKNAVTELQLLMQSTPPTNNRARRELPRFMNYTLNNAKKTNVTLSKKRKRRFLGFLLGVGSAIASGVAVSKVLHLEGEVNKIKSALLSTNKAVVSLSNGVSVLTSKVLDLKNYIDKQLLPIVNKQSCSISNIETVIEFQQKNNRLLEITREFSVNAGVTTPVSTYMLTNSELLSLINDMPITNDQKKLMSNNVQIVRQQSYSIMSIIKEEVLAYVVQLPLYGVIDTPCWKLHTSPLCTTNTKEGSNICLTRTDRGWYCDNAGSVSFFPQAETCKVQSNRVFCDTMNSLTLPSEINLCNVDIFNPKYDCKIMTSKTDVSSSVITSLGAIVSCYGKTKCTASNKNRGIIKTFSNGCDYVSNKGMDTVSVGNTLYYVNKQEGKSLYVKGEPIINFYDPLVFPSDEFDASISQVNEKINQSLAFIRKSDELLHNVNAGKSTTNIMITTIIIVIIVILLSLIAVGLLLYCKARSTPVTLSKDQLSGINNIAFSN

RSV-A2 F假病毒上的F蛋白 (参考序列Uniprot:P03420), sequence (P03420 26-574, one chain of several): as the sequence (P03420 26-574) above

B1: RSFP2G7抗体 (antibody, V domains shown)
VH: QVQLVQSGTEVRKPGSSVKVSCTASGGTFSIYDIFWVRQAPGQGLEWMGRIIPILDQIDYAQKFEGRVTITADKGRKTVYMELSSLRSDDTAVYYCARPPDTYDNIERWGPGTLVTVSS
VL: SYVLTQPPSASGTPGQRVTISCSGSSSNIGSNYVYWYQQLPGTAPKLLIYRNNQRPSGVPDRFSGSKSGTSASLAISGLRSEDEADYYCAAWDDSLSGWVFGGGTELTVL
[1]
  中和IC50 (RSV-A2假病毒, luciferase, 293T细胞): 1.7 µg/mL
RSV(strain A2)病毒的F蛋白
  中和IC50 (RSV strain A2活病毒, focus count, 293T细胞): 0.734 µg/mL

B2: RSFP2B6抗体 (antibody, V domains shown)
VH: QVQLVQSGGALAQPGRSLRLSCTTSGFTFGDYAVNWVRQAPGKGLEWVGIVRTEPYGGTTEYSASVKGRFIISRDDSKGIAYLQMNSLKTEDTGVYYCSQPILNVDVWGQGTTVTVSS
VL: NFMLTQPHSVSESPGKTVTISCTRSSGSFGSDYVQWYQQRPGSAPNTVIYENNQRPSGVPDRFSGSIDSSSNSASLTISGLKTEDEADYYCQSYDDNTPWVFGGGTELTVL
[1]
  中和IC50 (RSV-A2假病毒, luciferase, 293T细胞): 3.89 µg/mL
RSV(strain A2)病毒的F蛋白
  中和IC50 (RSV strain A2活病毒, focus count, 293T细胞): 1 µg/mL

B3: RSFP2D9抗体 (antibody, V domains shown)
VH: EVQLVESGGGLVQPGGSLRLSCAASGFTFSTYEMNWVRQAPGKGLEWISYISVSGATIYYADSVKGRFTISRDNAKSSVYLQMTSLRPEDTAIYYCARDNSLTDYGSGLYWGQGTTVTVSS
VL: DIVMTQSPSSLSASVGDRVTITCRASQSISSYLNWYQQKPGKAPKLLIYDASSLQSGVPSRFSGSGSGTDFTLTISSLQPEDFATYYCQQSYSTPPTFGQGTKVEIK
[1]
  中和IC50 (RSV-A2假病毒, luciferase, 293T细胞): 0.532 µg/mL
RSV(strain A2)病毒的F蛋白
  中和IC50 (RSV strain A2活病毒, focus count, 293T细胞): 0.054 µg/mL
